The values that follow come from the RNAGym collection of RNA variant scans (doi:10.1093/nar/gkz1192).

The chains are these.
B1: CPEB3 Ribozyme (parent)
chain: UAACAGGGGGCCACAGCAGAAGCGUUCACGUCGCAGCCCCUGUCAGAUUCUGGUGAAUCUGCGAAUUCUGCUGUAUAUCUC

The data set covers variants of B1. The data set is described as follows: self-cleavage, relative activity (ratio to wild type); higher = more cleavage; in vitro, sequencing. A digest of the protocol: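 For each CPEB3 ribozyme variant, relative activity is its cleaved/total read fraction divided by the unmutated ribozyme's. Barcoded error-prone PCR libraries were transcribed by T7 RNA polymerase (5 hours, 37°C) and held in DNase I for 15 min before an EDTA stop, with cleavage occurring throughout. Template-switching reverse transcription and Illumina sequencing were used to read the RNAs. A 5-read minimum applied, and results are the mean of three batches.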
As to UAACAGGGGGCCACAGCAGAAGCGUUCACGUCGCAGCCCGUGUCAGAUUCUGGUGAAUCUGCGAAUUCUGCUGUAUAUCCC, the self-cleavage amounted to 0.19.

With UAACAGGGGGCCACAGCAGAAGCGUUCACGUCGCAGCCCUUGUCAGAUUCUGGUGAAUCUGCGUAUUCUGCUGUAUAUCUC, the self-cleavage was 0.27.

In the case of UAACAGGGGGCCACAGCAGAAGCGUUCACGUCGCAGCCCUUGUCAGAUUCUGGUGAAUCUGCGGAUUCUGCUGUAUAUCUC, the self-cleavage is 0.54.

In the case of UAACAGGGGGCCACAGCAGAAGCGUUCACGUCGCAGCCCUUGUCAGAUUCUGGUGAAUCUGCGAAUUCUGCUCUAUAUCUC, the self-cleavage was determined as 1.22.

As for UAACAGGGGGCCACAGCAGAAGCGUUCACGUCGCAGCCCUUGUCAGAUUAUGGUGAAUCUGCGAAUUCUGCUGUAUAUCUC, the self-cleavage stood at 0.46.

For the variant UAACAGGGGGCCACAGCAGAAGCGUUCACGUCGCAGCCCGUGUCAGAUUCUGGUGAAUCUGCGAACUCUGCUGUAUAUCUC, the self-cleavage came out at 0.22.

As for UAACAGGGGGCCACAGCAGAAGCGUUCACGUCGCAGCCCGUGUCAGAUUCUGGUGAAUCUGCGAAUUCUGCCGUAUAUCUC, the self-cleavage was 0.48.

As to UAACAGGGGGCCACAGCAGAAGCGUUCACGUCGCAGCCCGUGUCAGAUUCUGGUGAAUCUGCGAAUUCUGCGGUAUAUCUC, the self-cleavage stood at 0.16.

For the variant UAACAGGGGGCCACAGCAGAAGCGUUCACGUCGCAGCCCUUGUCAGAUUCUGGUGAAUCUGCGAAUUCUGCUGUAUAUGUC, the self-cleavage was 1.24.

For the variant UAACAGGGGGCCACAGCAGAAGCGUUCACGUCGCAGCCCUUGUCAGAUUCGGGUGAAUCUGCGAAUUCUGCUGUAUAUCUC, the self-cleavage amounted to 0.49.

Consider UAACAGGGGGCCACAGCAGAAGCGUUCACGUCGCAGCCCUUGUCAGAUUCCGGUGAAUCUGCGAAUUCUGCUGUAUAUCUC, for which the self-cleavage is 0.65.

Regarding UAACAGGGGGCCACAGCAGAAGCGUUCACGUCGCAGCCCUUGUCAGAUUCAGGUGAAUCUGCGAAUUCUGCUGUAUAUCUC, the self-cleavage came out at 0.84.

In the case of UAACAGGGGGCCACAGCAGAAGCGUUCACGUCGCAGCCCUUGCCAGAUUCUGGUGAAUCUGCGAAUUCUGCUGUAUAUCUC, the self-cleavage is 0.39.

As for UAACAGGGGGCCACAGCAGAAGCGUUCACGUCGCAGCCCUUGACAGAUUCUGGUGAAUCUGCGAAUUCUGCUGUAUAUCUC, the self-cleavage is 0.92.

For the variant UAACAGGGGGCCACAGCAGAAGCGUUCACGUCGCAGCCCUUGUCAGAUACUGGUGAAUCUGCGAAUUCUGCUGUAUAUCUC, the self-cleavage was found to be 0.2.

On to UAACAGGGGGCCACAGCAGAAGCGUUCACGUCGCAGCCCUUGUCAGAUCCUGGUGAAUCUGCGAAUUCUGCUGUAUAUCUC, for which the self-cleavage was 0.36.

Consider UAACAGGGGGCCACAGCAGAAGCGUUCACGUCGCAGCCCUUGUCAGAUUCUGGUGAAUCUGCGAAUCCUGCUGUAUAUCUC, for which the self-cleavage was 0.23.

Consider UAACAGGGGGCCACAGCAGAAGCGUUCACGUCGCAGCCCUUGUCAGAUUCUGGUGAAACUGCGAAUUCUGCUGUAUAUCUC, for which the self-cleavage turned out to be 0.3.

UAACAGGGGGCCACAGCAGAAGCGUUCACGUCGCAGCCCUUGUCAGAUUCUGGUGAACCUGCGAAUUCUGCUGUAUAUCUC: the self-cleavage came out at 0.24.

As to UAACAGGGGGCCACAGCAGAAGCGUUCACGUCGCAGCCCUUGUCAGAUUCUGGUGAAUUUGCGAAUUCUGCUGUAUAUCUC, the self-cleavage was found to be 0.28.

Consider UAACAGGGGGCCACAGCAGAAGCGUUCACGUCGCAGCCCUUGUCAGAUUCUGGUGAAUCUGCGAAUUCUGCUGUAUAUCUC, for which the self-cleavage is 0.76.

Turning to UAACAGGGGGCCACAGCAGAAGCGUUCACGUCGCAGCCCUCGUCAGAUUCUGGUGAAUCUGCGAAUUCUGCUGUAUAUCUC, the self-cleavage was determined as 0.92.

Consider UAACAGGGGGCCACAGCAGAAGCGUUCACGUCGCAGCCCUAGUCAGAUUCUGGUGAAUCUGCGAAUUCUGCUGUAUAUCUC, for which the self-cleavage came out at 0.25.

Turning to UAACAGGGGGCCACAGCAGAAGCGUUCACGUCGCAGCCCUGGUCAGAUUCUGGUGAAUCUGCGAAUUCUGCUGUAUAUCUC, the self-cleavage came to 0.16.

UAACAGGGGGCCACAGCAGAAGCGUUCACGUCGCAGCCCUUGUCAGAUUCUGGUUAAUCUGCGAAUUCUGCUGUAUAUCUC: the self-cleavage stood at 0.49.

With UAACAGGGGGCCACAGCAGAAGCGUUCACGUCGCAGCCCUUGUCAGAUUCUGGUAAAUCUGCGAAUUCUGCUGUAUAUCUC, the self-cleavage turned out to be 0.67.

Turning to UAACAGGGGGCCACAGCAGAAGCGUUCACGUCGCAGCCCUUGUCAGAUUCUGGUGAAUCUGCGAUUUCUGCUGUAUAUCUC, the self-cleavage was 0.37.

As for UAACAGGGGGCCACAGCAGAAGCGUUCACGUCGCAGCCCUUGUCAGAUUCUGGUGAAUCUGCGAGUUCUGCUGUAUAUCUC, the self-cleavage came to 0.27.

As for UAACAGGGGGCCACAGCAGAAGCGUUCACGUCGCAGCCCUUGUCCGAUUCUGGUGAAUCUGCGAAUUCUGCUGUAUAUCUC, the self-cleavage came out at 0.17.

For the variant UAACAGGGGGCCACAGCAGAAGCGUUCACGUCGCAGCCCUUGUCGGAUUCUGGUGAAUCUGCGAAUUCUGCUGUAUAUCUC, the self-cleavage worked out at 0.55.

Turning to UAACAGGGGGCCACAGCAGAAGCGUUCACGUCGCAGCCCUUGUCUGAUUCUGGUGAAUCUGCGAAUUCUGCUGUAUAUCUC, the self-cleavage worked out at 0.15.

With UAACAGGGGGCCACAGCAGAAGCGUUCACGUCGCAGCCCGUGUCAGAUUCUGGUGAAUCUGCGAAUUCUGCUGUAUACCUC, the self-cleavage turned out to be 0.38.

With UAACAGGGGGCCACAGCAGAAGCGUUCACGUCGCAGCCCUUGUCAGAUUCUGGUGAAUCUGCGAAAUCUGCUGUAUAUCUC, the self-cleavage worked out at 0.23.

As to UAACAGGGGGCCACAGCAGAAGCGUUCACGUCGCAGCCCUUGUCAGAUUCUGGUGAAUCUGCGAACUCUGCUGUAUAUCUC, the self-cleavage stood at 0.33.

On to UAACAGGGGGCCACAGCAGAAGCGUUCACGUCGCAGCCCUUGUCAGAUUCUGGUGAAUCGGCGAAUUCUGCUGUAUAUCUC, for which the self-cleavage turned out to be 0.

Consider UAACAGGGGGCCACAGCAGAAGCGUUCACGUCGCAGCCCUUGUCAGAUUCUGGUGAAUCAGCGAAUUCUGCUGUAUAUCUC, for which the self-cleavage was 0.34.

With UAACAGGGGGCCACAGCAGAAGCGUUCACGUCGCAGCCCUUGUCAGAUUCUGGUGAAUCCGCGAAUUCUGCUGUAUAUCUC, the self-cleavage was determined as 0.3.

With UAACAGGGGGCCACAGCAGAAGCGUUCACGUCGCAGCCCUUGUCAGAUUCUGGUGAAUCUGCGAAUUGUGCUGUAUAUCUC, the self-cleavage came out at 0.28.

UAACAGGGGGCCACAGCAGAAGCGUUCACGUCGCAGCCCUUGUCAGAUUCUGGUGAAUCUGCGAAUUCUGAUGUAUAUCUC: the self-cleavage stood at 0.17.

For the variant UAACAGGGGGCCACAGCAGAAGCGUUCACGUCGCAGCCCUUGUCAGACUCUGGUGAAUCUGCGAAUUCUGCUGUAUAUCUC, the self-cleavage was determined as 0.25.

UAACAGGGGGCCACAGCAGAAGCGUUCACGUCGCAGCCCUUGUCAGAUUCUGGGGAAUCUGCGAAUUCUGCUGUAUAUCUC: the self-cleavage amounted to 0.6.

For UAACAGGGGGCCACAGCAGAAGCGUUCACGUCGCAGCCCUUGUCAGAUUCUGGAGAAUCUGCGAAUUCUGCUGUAUAUCUC, the self-cleavage amounted to 1.08.

On to UAACAGGGGGCCACAGCAGAAGCGUUCACGUCGCAGCCCUUGUCAGAUUCUGGCGAAUCUGCGAAUUCUGCUGUAUAUCUC, for which the self-cleavage is 0.7.

Turning to UAACAGGGGGCCACAGCAGAAGCGUUCACGUCGCAGCCCUUGUCAGAUUCUGAUGAAUCUGCGAAUUCUGCUGUAUAUCUC, the self-cleavage stood at 0.84.

For UAACAGGGGGCCACAGCAGAAGCGUUCACGUCGCAGCCCUUAUCAGAUUCUGGUGAAUCUGCGAAUUCUGCUGUAUAUCUC, the self-cleavage stood at 0.27.

Turning to UAACAGGGGGCCACAGCAGAAGCGUUCACGUCGCAGCCCUUGUCAGAUUCUGGUGAAUCUACGAAUUCUGCUGUAUAUCUC, the self-cleavage was 0.42.

For the variant UAACAGGGGGCCACAGCAGAAGCGUUCACGUCGCAGCCCUUGUCAAAUUCUGGUGAAUCUGCGAAUUCUGCUGUAUAUCUC, the self-cleavage was determined as 0.18.

Take UAACAGGGGGCCACAGCAGAAGCGUUCACGUCGCAGCCCUUGUAAGAUUCUGGUGAAUCUGCGAAUUCUGCUGUAUAUCUC: the self-cleavage was determined as 0.52.

Consider UAACAGGGGGCCACAGCAGAAGCGUUCACGUCGCAGCCCUUGUCAGUUUCUGGUGAAUCUGCGAAUUCUGCUGUAUAUCUC, for which the self-cleavage was 0.32.

For UAACAGGGGGCCACAGCAGAAGCGUUCACGUCGCAGCCCUUGUCAGGUUCUGGUGAAUCUGCGAAUUCUGCUGUAUAUCUC, the self-cleavage came out at 0.5.

As for UAACAGGGGGCCACAGCAGAAGCGUUCACGUCGCAGCCCUUGUCAGAUUCUGGUGCAUCUGCGAAUUCUGCUGUAUAUCUC, the self-cleavage came out at 0.32.

Consider UAACAGGGGGCCACAGCAGAAGCGUUCACGUCGCAGCCCUUGUCAGAUUCUGGUGUAUCUGCGAAUUCUGCUGUAUAUCUC, for which the self-cleavage was 0.32.

Turning to UAACAGGGGGCCACAGCAGAAGCGUUCACGUCGCAGCCCUUGUCAGAUUCUGGUGGAUCUGCGAAUUCUGCUGUAUAUCUC, the self-cleavage came to 0.48.

Take UAACAGGGGGCCACAGCAGAAGCGUUCACGUCGCAGCCCUUGUCAGAUUCUGGUGAAUCUGCGAAUUCAGCUGUAUAUCUC: the self-cleavage is 0.41.

Turning to UAACAGGGGGCCACAGCAGAAGCGUUCACGUCGCAGCCCUUGUCAGAUUCUGGUGAAUCUGCGAAUUCCGCUGUAUAUCUC, the self-cleavage came out at 0.36.

As for UAACAGGGGGCCACAGCAGAAGCGUUCACGUCGCAGCCCUUGUCAGAUUCUGGUGAAUCUGCGAAUUCGGCUGUAUAUCUC, the self-cleavage came to 0.57.

UAACAGGGGGCCACAGCAGAAGCGUUCACGUCGCAGCCCUUGUCAGAUUCUGGUGAAUCUGCGAAUUCUGCAGUAUAUCUC: the self-cleavage came to 0.39.

Regarding UAACAGGGGGCCACAGCAGAAGCGUUCACGUCGCAGCCCUUGUCAGAUUCUGGUGAAUCUGCGAAUUCUGCGGUAUAUCUC, the self-cleavage turned out to be 0.32.

With UAACAGGGGGCCACAGCAGAAGCGUUCACGUCGCAGCCCUUGUCAGAUUCUGGUGAAUCUGCGAAUUCUGCCGUAUAUCUC, the self-cleavage amounted to 0.9.

Turning to UAACAGGGGGCCACAGCAGAAGCGUUCACGUCGCAGCCCUUGUCAGAUUCUGGUGAAUCUGCGAAUUCUGCUGUAUGUCUC, the self-cleavage turned out to be 0.58.

For UAACAGGGGGCCACAGCAGAAGCGUUCACGUCGCAGCCCUUGUCAGAUUCUGGUGAAUCUGCGAAUUCUGCUGUAUUUCUC, the self-cleavage turned out to be 0.81.

Turning to UAACAGGGGGCCACAGCAGAAGCGUUCACGUCGCAGCCCUUGUCAGAUUCUGGUGAAUCUGCGAAUUCUGCUGUAUCUCUC, the self-cleavage amounted to 0.74.

Regarding UAACAGGGGGCCACAGCAGAAGCGUUCACGUCGCAGCCCUUGUCAGAUUCUGGUGAUUCUGCGAAUUCUGCUGUAUAUCUC, the self-cleavage was 0.61.

In the case of UAACAGGGGGCCACAGCAGAAGCGUUCACGUCGCAGCCCUUGUCAGAUUCUGGUGACUCUGCGAAUUCUGCUGUAUAUCUC, the self-cleavage stood at 0.46.

UAACAGGGGGCCACAGCAGAAGCGUUCACGUCGCAGCCCUUGUCAGAUUCUGGUGAGUCUGCGAAUUCUGCUGUAUAUCUC: the self-cleavage was determined as 0.36.

As for UAACAGGGGGCCACAGCAGAAGCGUUCACGUCGCAGCCCUUGUCAGAUUCUGGUGAAUCUGCGAAUUCUGCUGUUUAUCUC, the self-cleavage was found to be 0.74.

Turning to UAACAGGGGGCCACAGCAGAAGCGUUCACGUCGCAGCCCUUGUCAGAUUCUGGUGAAUCUGCGAAUUCUGCUGUGUAUCUC, the self-cleavage worked out at 0.5.

For the variant UAACAGGGGGCCACAGCAGAAGCGUUCACGUCGCAGCCCUUGUCAGAUUCUGGUGAAUCUGCGAAUUCUUCUGUAUAUCUC, the self-cleavage came to 0.16.
